Paper PMC9452904
One block for each substance: values may come before it.

What was measured:
[1] = biological target: ribosome-nascent chain complex with the HA-tagged GatY(1-284) nascent chain (E. coli) (UniProt P0C8J6); assay: fluorescence correlation spectroscopy (FCS); endpoint: ~2 ug truncated mRNA and 100 nM labeled TF in PUREfrex solution, 5-15 min at 37 C, then measured; two-component fit with the fast component fixed to free TF
[2] = biological target: ribosome-nascent chain complex with the HA-tagged GatY(1-153) nascent chain (E. coli) (UniProt P0C8J6); assay: as above
vacant ribosome = assay: fluorescence correlation spectroscopy (FCS); 100 nM Alexa488-labeled TF with increasing ribosome concentrations in HKM buffer (25 mM Hepes-KOH pH 7.4, 100 mM KCl, 5 mM MgCl2); ratio of ribosome-bound TF from a two-component fit, Kd from a quadratic fit
[3] = biological target: ribosome-nascent chain complex with the HA-tagged GatY(1-153) nascent chain on the TMR-labeled Halo-S2 ribosome (E. coli | not stated) (UniProt P0C8J6); assay: single-molecule total internal reflection fluorescence microscopy (TIRFM); RNCs held on a PEG/biotin-PEG slide through neutravidin and anti-HA biotin; 50 nM Alexa647-labeled TF, 50 nM TMR-labeled Halo-S2 ribosome; 10 frames/s for 150 s; residence times fitted
[4] = biological target: ribosome-nascent chain complex with the HA-tagged GatY(1-284) nascent chain on the TMR-labeled Halo-S2 ribosome (E. coli | not stated) (UniProt P0C8J6); assay: as above
[5] = biological target: Trigger factor (Escherichia coli) (UniProt P0A850); details: cited from earlier work

percent of TF in the slow component [1]: 90% | percent of TF in the slow component [2]: 90% | Kd (vacant ribosome): 2240 nM
Substance: Alexa488-labeled trigger factor TF-R14C (from UniProt P0A850 1-432) (natural protein)

half-life of the residence time (fast component) [3]: 2.7 s | half-life of the residence time (slow fraction) [4]: 9.8 s
Substance: Alexa647-labeled TF-R14C (from UniProt P0A850 1-432) (natural protein)

Substance: Trigger factor (from UniProt P0A850)
Kd [5]: 1500 nM
